# Laboratory results published in the supplement of paper PMC9112550, “Optimization of the antimicrobial peptide Bac7 by deep mutational scanning” (BMC Biology, 2022).
# System: Escherichia coli TOP10
# Assay: shrunken log2 fold change of peptide-encoding DNA abundance (4.5 h post-induction vs induction); higher = less antimicrobial activity (less host growth inhibition)
# Settings: time post-induction: 4.5 h; library: site-saturation at positions 5, 18, 19, 20
# 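Note: peptides expressed intracellularly from a pBAD plasmid library in pooled LB shake-flask culture, induced with 0.3% L-arabinose, DNA abundance read by NGS, three biological replicates, DESeq2 with apeglm shrinkage.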
row,Sequence,shrunken log2 fold change
1,RRIRERPPRLPRPRPRPQFVPRP,-0.312
2,RRIRFRPPRLPRPRPRPGNCPRP,0.0888
3,RRIRDRPPRLPRPRPRPIYIPRP,-0.288
4,RRIRYRPPRLPRPRPRPPYIPRP,-0.496
5,RRIRVRPPRLPRPRPRPKMCPRP,-0.00991
6,RRIRMRPPRLPRPRPRPRPTPRP,1.27
7,RRIRVRPPRLPRPRPRPEPRPRP,0.708
8,RRIRMRPPRLPRPRPRPLGIPRP,0.0188
9,RRIRIRPPRLPRPRPRPMGSPRP,-0.0432
10,RRIRPRPPRLPRPRPRPNIFPRP,-0.189
11,RRIRHRPPRLPRPRPRPGTQPRP,-0.128
12,RRIRGRPPRLPRPRPRPGTSPRP,0.278
13,RRIRIRPPRLPRPRPRPPYDPRP,-0.814
14,RRIRCRPPRLPRPRPRPMVSPRP,0.0237
15,RRIRLRPPRLPRPRPRPKQIPRP,0.0389
16,RRIRRRPPRLPRPRPRPEDYPRP,0.252
17,RRIRPRPPRLPRPRPRPKVKPRP,-0.236
18,RRIRYRPPRLPRPRPRPLRKPRP,-0.258
19,RRIRKRPPRLPRPRPRPHTWPRP,0.0484
20,RRIRLRPPRLPRPRPRPAITPRP,-0.252
21,RRIRKRPPRLPRPRPRPNVTPRP,0.138
22,RRIRRRPPRLPRPRPRPEFNPRP,0.25
23,RRIRVRPPRLPRPRPRPIEDPRP,-0.0208
24,RRIRERPPRLPRPRPRPSKQPRP,0.0844
25,RRIRGRPPRLPRPRPRPCDIPRP,-0.00533

row,Sequence,shrunken log2 fold change
1,RRIRCRPPRLPRPRPRPVETPRP,0.0672
2,RRIRIRPPRLPRPRPRPAHYPRP,-0.153
3,RRIRDRPPRLPRPRPRPHMIPRP,-0.125
4,RRIRHRPPRLPRPRPRPLRNPRP,-0.0741
5,RRIRCRPPRLPRPRPRPMTHPRP,-0.377
6,RRIRTRPPRLPRPRPRPYTYPRP,-0.489
7,RRIRWRPPRLPRPRPRPIRRPRP,-0.00924
8,RRIRDRPPRLPRPRPRPRWRPRP,0.605
9,RRIRCRPPRLPRPRPRPHYRPRP,0.127
10,RRIRYRPPRLPRPRPRPWVPPRP,-0.0218
11,RRIRYRPPRLPRPRPRPISKPRP,-0.562
12,RRIRQRPPRLPRPRPRPVHEPRP,0.536
13,RRIRLRPPRLPRPRPRPEVFPRP,0.0607
14,RRIRWRPPRLPRPRPRPQVMPRP,0.209
15,RRIRVRPPRLPRPRPRPGNTPRP,-0.113
16,RRIRYRPPRLPRPRPRPQHRPRP,-0.602
17,RRIRRRPPRLPRPRPRPQSLPRP,-0.0788
18,RRIRYRPPRLPRPRPRPLIGPRP,-0.478
19,RRIRGRPPRLPRPRPRPEKTPRP,-0.0522
20,RRIRSRPPRLPRPRPRPICTPRP,0.166
21,RRIRKRPPRLPRPRPRPKSYPRP,-0.177
22,RRIRHRPPRLPRPRPRPSGRPRP,0.0298
23,RRIRMRPPRLPRPRPRPGNVPRP,-0.0105
24,RRIRFRPPRLPRPRPRPRADPRP,0.223
25,RRIRMRPPRLPRPRPRPEEKPRP,2.64

row,Sequence,shrunken log2 fold change
1,RRIRIRPPRLPRPRPRPGDFPRP,-0.162
2,RRIRGRPPRLPRPRPRPYPAPRP,0.497
3,RRIRWRPPRLPRPRPRPCNFPRP,-0.464
4,RRIRMRPPRLPRPRPRPDQYPRP,-0.418
5,RRIRQRPPRLPRPRPRPRGSPRP,0.0908
6,RRIRVRPPRLPRPRPRPLLCPRP,-0.642
7,RRIRCRPPRLPRPRPRPIARPRP,0.19
8,RRIRTRPPRLPRPRPRPNGTPRP,-0.402
9,RRIRRRPPRLPRPRPRPHQVPRP,0.1
10,RRIRFRPPRLPRPRPRPPVKPRP,-0.00563
11,RRIRRRPPRLPRPRPRPSVDPRP,0.168
12,RRIRARPPRLPRPRPRPETWPRP,0.369
13,RRIRQRPPRLPRPRPRPAGMPRP,-0.148
14,RRIRHRPPRLPRPRPRPVWSPRP,-0.103
15,RRIRPRPPRLPRPRPRPSRTPRP,0.198
16,RRIRPRPPRLPRPRPRPQAHPRP,-0.243
17,RRIRYRPPRLPRPRPRPSIVPRP,-0.912
18,RRIRSRPPRLPRPRPRPLCRPRP,-0.0794
19,RRIRHRPPRLPRPRPRPTTWPRP,-0.182
20,RRIRYRPPRLPRPRPRPVSKPRP,-0.069
21,RRIRFRPPRLPRPRPRPGPWPRP,0.216
22,RRIRCRPPRLPRPRPRPLSNPRP,0.504
23,RRIRCRPPRLPRPRPRPMFLPRP,-0.847
24,RRIRERPPRLPRPRPRPDYAPRP,-0.0187
25,RRIRSRPPRLPRPRPRPPKEPRP,1.07
